This is an account of results in patent US20240343811A1 (SHANDONG SIMCERE BIOPHARMACUTICAL, published 2024).

For orientation: Kd means the constant that tells how readily two partners part at equilibrium. A lower Kd goes with higher affinity. The koff is the first-order rate constant of dissociation. A lower koff goes with slow dissociation. As usually defined, the kon is the rate constant with which the complex forms. Read a low kon as slow association. As a reminder, the EC50 is the concentration giving half of the maximal effect. Low readings indicate higher potency in that assay, high ones lower potency in that assay.

Residue numbers refer to the chain shown, from its start. Read-outs that look alike come from different tables or passages of the source.

The target of one test is T1, Human CD16a (158F)-his (human).
T1 construct: entry holds ECD, AVI tag, linker and His tag
The test is described as follows: SPR (Biacore), antibody captured on Protein A. The method, then:
(§1) A sample buffer and a running buffer were HBS-EP+ (10 mM HEPES, 150 mM NaCl, 3 mM EDTA and 0.05% surfactant P20) (GE Healthcare; BR-1006-69). The flow-through cell was set to 25° C. The sample block was set to 16° C. Both were pretreated with the running buffer. In each cycle, an antibody to be detected was first captured with a Protein A chip, and then a single concentration of CD16 antigen protein was injected. The binding and dissociation processes of the antibody and the antigen protein were recorded, and finally Glycine pH 1.5 (GE Healthcare; BR-1003-54) was used to complete chip regeneration. Binding was measured by injecting different concentrations of recombinant human CD16-ECD his proteins in a solution for 240 s with a flow rate of 30 μL/min, wherein a total of 5 concentrations were prepared by using 200 nM as a starting concentration (see the detailed results for the actual concentration in the test) and performing a 1:1 dilution. The dissociation phase was monitored for up to 600 s and was triggered by switching from a sample solution to a running buffer. The surface was regenerated by washing with a 10 mM glycine solution (pH 1.5) for 30 s at a flow rate of 30 μL/min. Bulk refractive index difference was corrected by subtracting the response obtained from the goat anti-human Fc surface. Blank injection was also subtracted (=double reference). For calculation of apparent KD and other kinetic parameters, Langmuir 1:1 model was used.
(Surface plasmon resonance follows binding to a sensor surface in real time, without labels.)

The target of test [1] is T2, human CD16a (158V), full length, on cells (human, UniProt P08637 17-254). The test is described as follows: cell-based or functional assay.
Target sequence in this assay (P08637 17-254 F176V limits assumed): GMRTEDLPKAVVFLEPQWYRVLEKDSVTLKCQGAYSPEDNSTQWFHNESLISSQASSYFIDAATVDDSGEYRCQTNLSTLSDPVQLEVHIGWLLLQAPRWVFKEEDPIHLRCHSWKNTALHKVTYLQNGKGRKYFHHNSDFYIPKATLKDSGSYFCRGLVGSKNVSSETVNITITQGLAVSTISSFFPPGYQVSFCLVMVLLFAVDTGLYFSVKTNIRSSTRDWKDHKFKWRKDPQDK
Test [2] has as its target T3, human CD16b (NA1), full length, on FlpinCHO cells (human, UniProt O75015 17-200).
T3 construct: also called FlpinCHO-human CD16b (NA1)
T3 chain: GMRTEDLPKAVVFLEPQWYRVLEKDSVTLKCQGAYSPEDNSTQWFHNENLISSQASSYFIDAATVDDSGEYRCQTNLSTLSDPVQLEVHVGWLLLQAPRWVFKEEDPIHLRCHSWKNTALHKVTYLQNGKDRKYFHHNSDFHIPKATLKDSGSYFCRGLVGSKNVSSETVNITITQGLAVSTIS
The test is described as follows: FACS on FlpinCHO cells. The method, then: (§2) The required cells were scale-up cultured in a T-75 cell culture flask to the logarithmic growth phase. The medium was aspirated, and the cells were washed twice with a PBS buffer and then digested with trypsin. After the digestion was terminated, the cells were washed twice with the PBS buffer. The cells were counted, and then the cell pellet was resuspended with a [PBS+2% (w/w) BSA] blocking solution to 2×10⁶ cells/ml, and added to a 96-well FACS reaction plate at 50 μl/well. […] 50 μl/well of the antibody to be detected was added at different concentrations, and incubated on ice for 1 hour. […] The mixture was centrifuged and washed 5 times with PBS, and FACS (FACS Canto II, purchased from BD Company) was used for detection and result analysis. Data analysis was performed by software (CellQuest) to obtain the mean fluorescence intensity (MFI) of the cells. Then, software (GraphPad Prism8) was used for analysis, data fitting and EC50 value calculation.
(§3) The binding of an antibody to be detected to FlpinCHO-human CD16b cells was detected according to the method of Example 3.1.

For test [3], the target named is T4, human CD16b (NA2), full length, on FlpinCHO cells (human, UniProt O75015 17-200).
T4 construct: also called FlpinCHO-human CD16b (NA2)
T4 chain: T3 chain with R20S, N49S, D66N, V90I
Kind of test: FACS on FlpinCHO cells. On the procedure:
as §2, §3

Test [4] concerns the target T5, human CD16a (158F), full length, on FlpinCHO cells (human, UniProt P08637 17-254). Kind of test: FACS on FlpinCHO cells. On the procedure: as §2
(§4) The binding of a humanized antibody to FlpinCHO-human CD16a cells was detected according to the method of Example 3.1.
Target sequence in this assay (P08637 17-254 limits assumed): as the sequence (P08637 17-254 F176V limits assumed) above, with V160F counted along it

Test [5] concerns the target T2, human CD16a (158V), full length, on …. Kind of test: FACS on FlpinCHO cells. On the procedure:
as §2, §4
Target sequence in this assay (P08637 17-254 F176V limits assumed): as the sequence (P08637 17-254 F176V limits assumed) above

The target of a further test is T6, Human CD16a (158V)-his (human).
T6 construct: entry holds ECD, AVI tag, linker and His tag
The test is described as follows: SPR (Biacore), antibody captured on Protein A. On the procedure:
as §1

For the next test, the target named is T7, Human CD16b (NA1)-his (human).
T7 construct: entry holds ECD, linker, His tag and AVI tag
T7 chain: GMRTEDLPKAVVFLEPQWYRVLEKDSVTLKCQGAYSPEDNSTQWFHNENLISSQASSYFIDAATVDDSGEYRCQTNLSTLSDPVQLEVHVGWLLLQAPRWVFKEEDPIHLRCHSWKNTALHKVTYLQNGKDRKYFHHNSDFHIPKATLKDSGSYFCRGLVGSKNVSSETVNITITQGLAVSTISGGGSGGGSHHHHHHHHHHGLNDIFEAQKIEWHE
The test is described as follows: SPR (Biacore), antibody captured on Protein A. The method, then:
as §1

In test [6] the target is T5, human CD16a (158F), full length, on …. The test is described as follows: FACS, biotinylated antibody. On the procedure: as §2, with “The” for “The required cells were scale-up cultured in a T-75 cell culture flask to the logarithmic growth phase. The”
(§5) An antibody to be detected was labeled in advance according to the instructions of a biotin labeling kit (EZ-Link™ NHS-PEG4 Biotinylation Kit, purchased from Thermofisher Scientific, catalog number: 21455). […] Detection was performed according to the method of Example 3.1, wherein the biotinylated antibody was detected with fluorescein APC-labeled Streptavidin (High Concentration) (purchased from Biolegend, catalog number: 405243).
(In general: Flow cytometry measures light scatter and fluorescence of single cells or particles in a stream.)

For test [7], the target named is T2, human CD16a (158V), full length, on …. Kind of test: FACS, biotinylated antibody. The method, then:
as §2, with “The” for “The required cells were scale-up cultured in a T-75 cell culture flask to the logarithmic growth phase. The”
as §5

The target of test [8] is T5, human CD16a (158F), full length, on …. Kind of test: FACS on FlpinCHO cells. The method, then: as §2
This is another data set of the same source.

For test [9], the target named is T2, human CD16a (158V), full length, on …. Kind of test: FACS on FlpinCHO cells. The method, then: as §2
The source holds these as a separate data set.

The target in test [10] is T5, human CD16a (158F), full length, on …. Kind of test: FACS, biotinylated antibody, +10 mg/mL human immunoglobulin. The method, then: as §2, with “The” for “The required cells were scale-up cultured in a T-75 cell culture flask to the logarithmic growth phase. The”
as §5

Test [11] addresses T2, human CD16a (158V), full length, on …. The description is as above. The method, then: as §2, with “The” for “The required cells were scale-up cultured in a T-75 cell culture flask to the logarithmic growth phase. The”
as §5

Test [12] shares this target. The test is described as follows: cell-based or functional assay. The source holds these as a separate data set.
In test [13] the target is T3, human CD16b (NA1), full length, on …. The test is described as follows: FACS on FlpinCHO cells. On the procedure:
as §2, §3

Test [14] addresses T4, human CD16b (NA2), full length, on …. Kind of test: FACS on FlpinCHO cells. The method, then: as §2, §3

B1: VHH06-06 humanized VHH-Fc antibody (Fc fusion)
chain: EVQLVESGGGVVQPGGSLRLSCAASGSTWTTYAVRWYRQAPGKQREWVAFISVDGSTNYADSVKGRFTVSRDNSKNTVYLQMNSLRAEDTADYICRVGGQYWGQGTMVTVSSEPKSSDKTHTCPPCPAPEEFGGPSVFLFPPKPKDTLMISRTPEVTCVVVAVSHEDPEVKFNWYVDGVEVHNAKTKPREEQYNSTYRVVSVLTVLHQDWLNGKEYKCKVSNKALPAPIEKTISKAKGQPREPQVYTLPPSREEMTKNQVSLTCLVKGFYPSDIAVEWESNGQPENNYKTTPPVLDSDGSFFLYSKLTVDKSRWQQGNVFSCSVMHEALHNHYTQKSLSLSPGK
For the molecule B1, in the test with Human CD16a (158F)-his, binding was put at a Kd of 24.6 nM, the koff is 0.00116 s⁻¹ and the kon turned out to be 47100 M⁻¹ s⁻¹. Besides, in test [1], the “EC50, activation activity for Jurkat cell” value (“EC50, activation activity” below) was determined as 0.01 nM and the Maximum fluorescence value came to 167000. Moreover, in test [2], the EC50 is 0.25 nM and the “Maximum mean fluorescence intensity” value stood at 59800. For the same molecule, in test [3], the “Maximum mean fluorescence intensity” value was 204 and the binding result is recorded as “no binding (tested: 100 nM)”. Moreover, in test [4], the EC50 stood at 0.3 nM and the “Maximum mean fluorescence intensity” value was found to be 8930. Besides, in test [5], the EC50 was 0.28 nM and the “Maximum mean fluorescence intensity” value was determined as 8240.

B2: VHH06-07 humanized VHH-Fc antibody (Fc fusion)
chain: B1 chain with V69I, M107Q
Take B2: in the test with Human CD16a (158F)-his, the Kd turned out to be 32.1 nM, the koff was found to be 0.00139 s⁻¹ and the kon was determined as 43100 M⁻¹ s⁻¹. In test [1], the “EC50, activation activity” value was determined as 0.02 nM and the Maximum fluorescence value was determined as 173000. In addition, in [2], it took 0.33 nM to reach a half-maximal effect (EC50) and the “Maximum mean fluorescence intensity” value was determined as 53500. Further, in [3], the “Maximum mean fluorescence intensity” value came out at 167 and the binding result is recorded as “no binding (tested: 100 nM)”. In addition, in test [4], the midpoint of the response, the EC50, lay at 0.5 nM and the “Maximum mean fluorescence intensity” value was determined as 9160. In test [5], the EC50 came to 0.5 nM and the “Maximum mean fluorescence intensity” value was found to be 8460.

B3: VHH01 VHH-Fc antibody (Fc fusion)
chain: QVQLVESGGGLVQAGGSLRLSCVASRSTLTTYAVRWYRQAPGKQREWVAFISVDGNTNYPDSVKGRFIVSRDNAKNTVYLQMNSLKPEDTADYICRAGGQYWGQGTQVTVSSEPKSSDKTHTCPPCPAPEFEGGPSVFLFPPKPKDTLMISRTPEVTCVVVAVSHEDPEVKFNWYVDGVEVHNAKTKPREEQYNSTYRVVSVLTVLHQDWLNGKEYKCKVSNKALPAPIEKTISKAKGQPREPQVYTLPPSREEMTKNQVSLTCLVKGFYPSDIAVEWESNGQPENNYKTTPPVLDSDGSFFLYSKLTVDKSRWQQGNVFSCSVMHEALHNHYTQKSLSLSPGK
As to B3, the values for the Kd in the test with Human CD16a (158V)-his, with Human CD16a (158F)-his and with Human CD16b (NA1)-his were 27 nM, 108 nM and 95.7 nM, respectively. Also, the koff worked out at 0.00373 s⁻¹ in the test with Human CD16a (158V)-his, 0.00831 s⁻¹ with Human CD16a (158F)-his and 0.0485 s⁻¹ in the test with Human CD16b (NA1)-his. Further, the figures for the kon in the test with Human CD16a (158V)-his, with Human CD16a (158F)-his and with Human CD16b (NA1)-his were 138000 M⁻¹ s⁻¹, 76600 M⁻¹ s⁻¹ and 507000 M⁻¹ s⁻¹, respectively. Further, the half-maximal effective concentration (EC50) worked out at 0.56 nM in test [6]; 0.47 nM in test [7]; 0.91 nM in [8]; 0.47 nM in [9]; 1.21 nM in [10]; 1.15 nM in test [11]. A half-maximal effect in [13] (EC50) was put at 0.85 nM. For the same molecule, the “Maximum mean fluorescence intensity” value in test [6] was 4940; in [7], 6400; in [8] it was 4010; in [9], 5000; in test [10] it was 6850; in [11] it was 9000. Also, the “Maximum mean fluorescence intensity” value amounted to 49700 in test [13] and 95 in test [14]. Further, the “EC50, activation activity” value in test [12] was 0.09 nM. In test [12], this molecule came in with a Maximum fluorescence value of 178000. In test [14], the binding result was “no binding (tested: 100 nM)”.
